Experimental data: article PMC2115445
“And” between values parts separate entries of the source, which are not always exact repeats. Equal entries are not always repeated.

Columns and labels:
[1] = molecular target: human erythrocyte ankyrin (human) (UniProt P16157); experiment: co-sedimentation
[2] = molecular target: human erythrocyte ankyrin (human) (UniProt P16157); experiment: pull-down
[3] = molecular target: Na,K-ATPase (alpha-beta heterodimer) of dog kidney membranes (dog (endogenous in canine kidney)) (UniProt P50997); experiment: co-sedimentation

Chain of human erythrocyte ankyrin (human) (P16157 whole entry): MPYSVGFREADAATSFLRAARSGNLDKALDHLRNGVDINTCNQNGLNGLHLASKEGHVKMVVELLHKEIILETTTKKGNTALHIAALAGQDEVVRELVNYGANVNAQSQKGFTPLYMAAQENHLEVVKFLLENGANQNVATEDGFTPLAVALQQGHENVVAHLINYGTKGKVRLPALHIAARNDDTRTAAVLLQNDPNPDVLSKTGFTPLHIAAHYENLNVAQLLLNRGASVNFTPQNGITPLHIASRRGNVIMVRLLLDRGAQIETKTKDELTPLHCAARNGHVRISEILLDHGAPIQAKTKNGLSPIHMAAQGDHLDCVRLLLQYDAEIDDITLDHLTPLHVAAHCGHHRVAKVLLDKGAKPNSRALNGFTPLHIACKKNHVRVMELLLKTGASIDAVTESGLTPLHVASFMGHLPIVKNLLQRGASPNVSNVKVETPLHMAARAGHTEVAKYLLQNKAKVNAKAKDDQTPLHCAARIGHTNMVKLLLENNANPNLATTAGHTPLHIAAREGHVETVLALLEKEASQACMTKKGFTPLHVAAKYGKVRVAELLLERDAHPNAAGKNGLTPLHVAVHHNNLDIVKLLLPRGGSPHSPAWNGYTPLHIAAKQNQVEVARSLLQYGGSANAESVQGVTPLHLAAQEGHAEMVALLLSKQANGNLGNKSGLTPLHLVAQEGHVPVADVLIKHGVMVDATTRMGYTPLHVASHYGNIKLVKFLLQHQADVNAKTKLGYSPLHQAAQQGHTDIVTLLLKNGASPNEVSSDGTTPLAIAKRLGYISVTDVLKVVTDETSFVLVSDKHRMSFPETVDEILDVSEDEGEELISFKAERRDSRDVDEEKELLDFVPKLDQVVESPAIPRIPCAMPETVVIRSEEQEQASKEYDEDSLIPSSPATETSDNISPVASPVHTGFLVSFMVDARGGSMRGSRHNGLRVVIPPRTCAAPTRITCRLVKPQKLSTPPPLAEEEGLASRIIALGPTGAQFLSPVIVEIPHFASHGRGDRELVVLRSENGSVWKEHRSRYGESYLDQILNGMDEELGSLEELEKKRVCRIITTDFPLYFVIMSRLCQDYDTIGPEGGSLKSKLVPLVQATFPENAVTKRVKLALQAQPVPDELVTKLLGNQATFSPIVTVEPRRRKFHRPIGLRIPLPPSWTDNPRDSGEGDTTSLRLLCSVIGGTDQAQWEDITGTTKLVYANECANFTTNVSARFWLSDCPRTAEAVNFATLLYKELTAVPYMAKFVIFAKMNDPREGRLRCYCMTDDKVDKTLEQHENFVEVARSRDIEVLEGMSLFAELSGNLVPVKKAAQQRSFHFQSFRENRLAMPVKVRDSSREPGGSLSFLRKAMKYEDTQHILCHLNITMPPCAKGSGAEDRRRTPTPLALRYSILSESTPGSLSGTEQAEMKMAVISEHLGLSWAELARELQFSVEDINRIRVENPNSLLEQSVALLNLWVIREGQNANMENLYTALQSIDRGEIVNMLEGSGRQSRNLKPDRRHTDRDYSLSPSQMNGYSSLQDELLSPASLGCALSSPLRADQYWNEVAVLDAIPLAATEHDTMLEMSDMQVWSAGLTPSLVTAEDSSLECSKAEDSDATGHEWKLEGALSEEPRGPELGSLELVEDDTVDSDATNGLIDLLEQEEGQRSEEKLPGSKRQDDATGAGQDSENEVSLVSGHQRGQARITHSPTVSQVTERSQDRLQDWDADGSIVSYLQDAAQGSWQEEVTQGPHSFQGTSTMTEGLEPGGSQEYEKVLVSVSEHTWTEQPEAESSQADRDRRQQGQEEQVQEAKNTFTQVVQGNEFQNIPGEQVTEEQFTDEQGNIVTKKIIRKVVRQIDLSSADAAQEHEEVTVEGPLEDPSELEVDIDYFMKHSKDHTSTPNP

## 43-kD cytoplasmic domain of human erythrocyte band 3 (domain or fragment)
[1]
  Ki: 3500 nM

## Na,K-ATPase (alpha-beta heterodimer) of dog kidney membranes (from UniProt P50997 1-1021; P06583 1-303) (complex)
[2]
  fold bound to immobilized ankyrin against immobilized BSA: 17 fold

## human erythrocyte ankyrin (from UniProt P16157 1-1881) (natural protein)
[3]
  Kd: 2590 nM and 2570 nM
  stoichiometry N (molecules of Na,K-ATPase per ankyrin): 3.5 to 4.8
[3]; scale: molecules of Na,K-ATPase alpha-beta heterodimer per ankyrin
  stoichiometry N: 2.93 and 5.05
